Experimental data as given in publication PMC6877594, “Atomic structure of the human herpesvirus 6B capsid and capsid-associated tegument complexes” (Nature Communications, 2019).
Where “and” joins values, the source holds several entries; their conditions need not be identical. Identical values can stand only once.

B1: major capsid protein (MCP) of human herpesvirus 6B (natural protein)
chain: MENWQATEILPKIEAPLNIFNDIKTYTAEQLFDNLRIYFGDDPSRYNISFEALLGIYCNKIEWINFFTTPIAVAANVIRFNDVSRMTLGKVLFFIQLPRVATGNDVTAPKETTIMVAKHSEKHPINISFDLSAACLEHLENTFKNTVIDQILNINALHTVLRSLKNSADSLERGLIHAFMQTLLRKSPPQFIVLTMNENKVHNKQALSRVQRSNMFQSLKNRLLTSLFFLNRNNNSSYIYRILNDMMESVTESILNDTNNYTSKENIPLDGVLLGPIGSIQKLTNILSQYISTQVVSAPISYGHFIMGKENAVTAIAYRAIMADFTQFTVNAGTEQQDTNNKSEIFDKSRAYADLKLNTLKLGDKLVAFDHLHKVYKNTDVNDPLEQSLQLTFFFPLGIYIPTETGFSTMETRVKLNDTMENNLPTSVFFHNKDQVVQRIDFADILPSVCHPIVHDSTIVERLMKNEPLPTGHRFSQLCQLKITRENPTRILQTLYNLYESRQEVPKNTNVLKNELNVEDFYKPDNPTLPTERHPFFDLTYIQKNRATEVLCTPRIMIGNMPLPLAPISFHEARTNQMLEHAKTNSHNYDFTLKIVTESLTSGSYPELAYVIEILVHGNKHAFMILKQVISQCISYWFNMKHILLFCNSFEMIMLISNHMGDELIPGAAFAHYRNLVSLIRLVKRTISISNINEQLCGEPLVNFANALFDGRLFCPFVHTMPRNDTNAKITADDTPLTQNTVRVRNYEISDVQRMNLIDSSVVFTDNDRPSNENTILSKIFYFCVLPALSNNKACGAGVNVKELVLDLFYTEPFICPDDCFQENPISSDVLMSLIREAMGPGYTVANTSSIAKQLFKSLIYINENTKILEVEVSLDPAQRHGNSVHFQSLQHILYNGLCLISPITTLRRYYQPIPFHRFFSDPGICGTMNADIQVFLNTFPHYQRNDGGFPLPPPLALEFYNWQRTPFSVYSAFCPNSLLSIMTLAAMHSKLSPVAIAIQSKSKIHPGFAATLVRTDNFDVECLLYSSRAATSIILDDPTVTAEAKDIVTTYNFTQHLSFVDMGLGFSSTTATANLKRIKSDMGSKIQNLFSAFPIHAFTNTDINTWIRHHVGIEKPNPSEGEALNIITFGGINKNPPSILLHGQQAICEVILTPVTTNINFFKLPHNPRGRESCMMGTDPHNEEAARKALYDHTQTDSDTFAATTNPWASLPGSLGDILYNTAHREQLCYNPKTYSPNAQFFTESDILKTNKMMYKVINEYCMKSNSCLNSDSEIQYSCSEGTDSFVSRPCQFLQNALPLHCSSNQALLESRSKTGNTQISETHYCNYAIGETIPLQLIIESSI
notes: major capsid protein (MCP) of human herpesvirus 6B, strain Z29; 1345 amino acids long; domains described over a.a; 1-1345; Native protein in the virion capsid; 16 conformers (15 hexon, 1 penton) modelled in each asymmetric unit; also called penton MCP; hexon MCP
B2: triplex dimer protein (Tri2) of human herpesvirus 6B (natural protein)
chain: METVYCTFDHKLSLSDISTLCKLMNIVIPIPAHHHLIGSGNLGLYPIVSSNKDYVHIRNVLRTMVVTILQKVEGNQLVLRKPMTGQQYAIKNTGPFPWEKGDTLTLIPPLSTHSEEKLLKLGDWELTVPLVVPTAIAAEINIRLLCIGLIAVHREYNEMQTIIDELCSIQYRDVLIKLPDIVNDKQSMYSMKTACISLSMITAMAPDIVRTYIDRLTLEDHSMLLIKCQELLSKRTTLSTQRCGQLHATDIKDELKKIKSVLTMIDQINSLTNEKTYFVVCDVSADNRMATCIYKN
notes: triplex dimer protein (Tri2) of human herpesvirus 6B, strain Z29; domains clamp (a.a. 1-86), trunk (a.a. 87-181 and 276-296), embracing arm (a.a. 182-275); Native protein in the virion capsid; two conformers (Tri2A, Tri2B) of the same protein in each triplex; also called Tri2A; Tri2B
B3: tegument protein pU11 of human herpesvirus 6B (natural protein)
chain: MDLKAQSIPFAWLDRDKVQRLTNFLSNLENLENVDLREHPYVTNSCVVREGEDVDELKTLYNTFILWLMYHYVLSKRKPDYNAIWQDITKLQNVVNEYLKSKGLNKGNFENMFTNKEKFESQFSDIHRALLRLGNSIRWGSNVPIDTPYVNLTAEDSSEIENNLQDAEKNMLWYTVYNINDPWDENGYLVTSINKLVYLGKLFVTLNQSWSKLEKVAMSQIVTTQNHLSGHLRKNENFNAVYSQRVLQTPLTGQRVESFLKIITSDYEIIKSSLESYSASKAFSVPENGPHSLMDFASLDGRMPSDLSLPSISIDTKRPSADLARLKISQPKSLDAPLKTQRRHKFPESDSVDNAGGKILIKKETLGGRDVRATTPVSSVSLMSGVEPLSSLTSTNLDLRDKSHGNYRIGPSGILDFGVKLPAEAQSNTGDVDLLQDKTSIRSPSSGITDVVNGLANLNLRQNKSDVSRPWSKNTAANADVFDPVHRLVSEQTGTPFVLNNSDVAGSEAKLTTHSTETGVSPHNVSLIKDLRDKDGFRKQKKLDLLGSWTKEKNDKAIVHSREVTGDSGDATETVTARDSPVLRKTKHANDIFAGLNKKYARDVSRGGKGNSRDLYSGGNAEKKETSGKFNVDKEMTQNEQEPLPNLMEAARNAGEEQYVQAGLGQRVNKILAEFTNLISLGEKGIQDILHNQSGTELKLPTENKLGRESEEANVERILEVSDPQNLFKNFKLQNDLDSVQSPFRLPNADLSRDLDSVSFKDALDVKLPGNGEREIDLALQKVKAGERETSDFKVGQDETLIPTQLMKVETPEEKDDVIEKMVLRIRQDGETDEETVPGPGVAESLGIAAKDKSVIAS
notes: tegument protein pU11 of human herpesvirus 6B, strain Z29; 858 a.a. long; wild-type full-length protein inside the virion, only a.a; 7-275 (pU11nt) are resolved and modelled; also called pU11nt (the resolved N-terminal one-third, a.a. 7-275); pU11nt-a-1
B4: smallest capsid protein (SCP) of human herpesvirus 6B, U32 gene product (natural protein)
chain: MTTIRGDDLSNQITQISGSSSKKEEEKKKQQMLTGVLGLQPTMANHPVLGVFLPKYAKQNGGNVDKTAFRLDLIRMLALHRLNTKTGSD
notes: smallest capsid protein (SCP), U32 gene product of human herpesvirus 6B, strain Z29; 89 residues long; the model covers residues 23-83, residues 1-22 are disordered; Native protein in the virion capsid; 16 conformers modelled in each asymmetric unit; also called penton SCP; hexon SCP

Key:
[1] = target: the molecule itself; assay: cryo-EM structure; in situ in HHV-6B (Z29) virions pelleted from SupT1 culture supernatant and resuspended in PBS; icosahedral reconstruction ~5.1 Å, sub-particle reconstructions at the fivefold, threefold and twofold axes at 3.82, 3.77 and 3.77 Å; atomic models of 59 conformers
[2] = target: B1; assay: as above; conditions: partners not purified

Binder | stoichiometry N [1] | stoichiometry N [2]
B1 | 5 and 6 | –
B2 | 2 | –
B3 | 4 | –
B4 | – | 1
